According to patent publication US20160272683A1 (Novo Nordisk, published 2016):
Ends that are not written are not given here. * marks the point of attachment. C18 diacid = O=C(O)CCCCCCCCCCCCCCCCC(=O)*

Columns and labels:
[1] = target: T1, human calcitonin receptor (human, UniProt P30988 25-474); assay: cell-based or functional assay
T1 sequence (looked up): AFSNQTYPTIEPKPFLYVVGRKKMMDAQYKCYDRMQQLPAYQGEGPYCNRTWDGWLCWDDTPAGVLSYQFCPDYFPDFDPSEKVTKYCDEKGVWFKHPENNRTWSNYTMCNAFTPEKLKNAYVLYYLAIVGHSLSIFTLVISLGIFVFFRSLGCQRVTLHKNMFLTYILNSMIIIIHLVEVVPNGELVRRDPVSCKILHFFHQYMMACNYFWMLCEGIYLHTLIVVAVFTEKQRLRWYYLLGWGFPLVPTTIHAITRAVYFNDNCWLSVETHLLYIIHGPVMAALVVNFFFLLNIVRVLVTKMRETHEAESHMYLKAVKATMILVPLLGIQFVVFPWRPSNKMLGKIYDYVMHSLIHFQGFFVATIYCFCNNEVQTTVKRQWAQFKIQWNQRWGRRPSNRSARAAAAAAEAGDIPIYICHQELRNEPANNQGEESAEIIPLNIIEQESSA

[2] = target: T2, human amylin 3(a) receptor (human calcitonin receptor co-expressed with RAMP-3) (human, UniProt P30988 25-474; O60896 24-148, limits assumed); assay: cell-based or functional assay
T2 sequence (looked up) 1: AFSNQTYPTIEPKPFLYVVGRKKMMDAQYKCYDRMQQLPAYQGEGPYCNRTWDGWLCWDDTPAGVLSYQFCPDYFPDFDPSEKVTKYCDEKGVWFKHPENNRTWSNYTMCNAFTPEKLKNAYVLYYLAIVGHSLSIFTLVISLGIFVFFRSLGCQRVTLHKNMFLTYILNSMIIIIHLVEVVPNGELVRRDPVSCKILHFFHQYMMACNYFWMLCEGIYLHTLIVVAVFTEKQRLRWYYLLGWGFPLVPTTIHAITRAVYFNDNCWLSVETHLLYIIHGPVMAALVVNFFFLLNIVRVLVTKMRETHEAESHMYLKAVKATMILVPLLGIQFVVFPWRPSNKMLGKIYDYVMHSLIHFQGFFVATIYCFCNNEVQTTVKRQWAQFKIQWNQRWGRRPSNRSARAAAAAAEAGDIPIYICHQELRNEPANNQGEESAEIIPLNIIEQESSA
T2 sequence (looked up) 2: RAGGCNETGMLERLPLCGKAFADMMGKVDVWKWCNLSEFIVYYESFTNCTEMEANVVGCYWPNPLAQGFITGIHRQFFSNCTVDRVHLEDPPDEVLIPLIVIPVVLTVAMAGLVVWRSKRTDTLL

| Binder | hCTR funct. EC50 (pM) [1] | hAmylin-R funct. EC50 (pM) [2] |
| --- | --- | --- |
| ASELTTAVLGRLSAELHELATLPRTETGTGTP-NH2 [[des1, 6T, 9V, 30T, 31G, 32T]mimylin] | 9 pM | 46 pM |
| ASEVSTAVLGRLSAELHELATLPRTETGSGSP-NH2 [[des1, 5V, 9V, 30S, 31G]mimylin] | 2 pM | 7 pM |
| {C18 diacid}-EASELSTLALGRLSAELHELATLPRTETGPESP-NH2 (SMILES CC(C)C[C@H](NC(=O)[C@H](C)NC(=O)[C@H](CC(C)C)NC(=O)[C@@H](NC(=O)[C@H](CO)NC(=O)[C@H](CC(C)C)NC(=O)[C@H](CCC(=O)O)NC(=O)[C@H](CO)NC(=O)[C@H](C)NC(=O)[C@H](CCC(=O)O)NC(=O)CCCCCCCCCCCCCCCCC(=O)O)[C@@H](C)O)C(=O)NCC(=O)N[C@@H](CCCNC(=N)N)C(=O)N[C@@H](CC(C)C)C(=O)N[C@@H](CO)C(=O)N[C@@H](C)C(=O)N[C@@H](CCC(=O)O)C(=O)N[C@@H](CC(C)C)C(=O)N[C@@H](Cc1c[nH]cn1)C(=O)N[C@@H](CCC(=O)O)C(=O)N[C@@H](CC(C)C)C(=O)N[C@@H](C)C(=O)N[C@H](C(=O)N[C@@H](CC(C)C)C(=O)N1CCC[C@H]1C(=O)N[C@@H](CCCNC(=N)N)C(=O)N[C@H](C(=O)N[C@@H](CCC(=O)O)C(=O)N[C@H](C(=O)NCC(=O)N1CCC[C@H]1C(=O)N[C@@H](CCC(=O)O)C(=O)N[C@@H](CO)C(=O)N1CCC[C@H]1C(N)=O)[C@@H](C)O)[C@@H](C)O)[C@@H](C)O) [[N-terminal(C18 diacid), 8L]mimylin] | 7 pM | 9 pM |
| ASELTTAVLGRLEAELHELTTLPRTETGTGTP-NH2 [[des1, 6T, 9V, 14E, 21T, 30T, 31G, 32T]mimylin] | 103 pM | 629 pM |
| EASELSTAALGRLSAELHELATLPRTETGSGSP-NH2 [[30S, 31G]mimylin] | 2 pM | 5 pM |
| LSGLSTAVLGRLSQELHELQTYPRTETGSQTY-NH2 [[des1, 2L, 4G, 9V, 15Q, 21Q, 23Y, 30S, 31Q, 32T, 33Y]mimylin] | 6 pM | 11 pM |
| EASELSTAALGRLSAELHELATLPRTETGPESP-NH2 [mimylin] | 1 pM | 3 pM |
| {C18 diacid}-EASELSTAALGRLSAELAELATLPRTETGPESP-NH2 (SMILES CC(C)C[C@H](NC(=O)[C@H](C)NC(=O)[C@H](C)NC(=O)[C@@H](NC(=O)[C@H](CO)NC(=O)[C@H](CC(C)C)NC(=O)[C@H](CCC(=O)O)NC(=O)[C@H](CO)NC(=O)[C@H](C)NC(=O)[C@H](CCC(=O)O)NC(=O)CCCCCCCCCCCCCCCCC(=O)O)[C@@H](C)O)C(=O)NCC(=O)N[C@@H](CCCNC(=N)N)C(=O)N[C@@H](CC(C)C)C(=O)N[C@@H](CO)C(=O)N[C@@H](C)C(=O)N[C@@H](CCC(=O)O)C(=O)N[C@@H](CC(C)C)C(=O)N[C@@H](C)C(=O)N[C@@H](CCC(=O)O)C(=O)N[C@@H](CC(C)C)C(=O)N[C@@H](C)C(=O)N[C@H](C(=O)N[C@@H](CC(C)C)C(=O)N1CCC[C@H]1C(=O)N[C@@H](CCCNC(=N)N)C(=O)N[C@H](C(=O)N[C@@H](CCC(=O)O)C(=O)N[C@H](C(=O)NCC(=O)N1CCC[C@H]1C(=O)N[C@@H](CCC(=O)O)C(=O)N[C@@H](CO)C(=O)N1CCC[C@H]1C(N)=O)[C@@H](C)O)[C@@H](C)O)[C@@H](C)O) [[N-terminal(C18 diacid), 18A]mimylin] | 3 pM | 4 pM |
| {C18 diacid}-EASEHSTAALGRLSAELHELATLPRTETGPESP-NH2 (SMILES CC(C)C[C@H](NC(=O)[C@H](C)NC(=O)[C@H](C)NC(=O)[C@@H](NC(=O)[C@H](CO)NC(=O)[C@H](Cc1c[nH]cn1)NC(=O)[C@H](CCC(=O)O)NC(=O)[C@H](CO)NC(=O)[C@H](C)NC(=O)[C@H](CCC(=O)O)NC(=O)CCCCCCCCCCCCCCCCC(=O)O)[C@@H](C)O)C(=O)NCC(=O)N[C@@H](CCCNC(=N)N)C(=O)N[C@@H](CC(C)C)C(=O)N[C@@H](CO)C(=O)N[C@@H](C)C(=O)N[C@@H](CCC(=O)O)C(=O)N[C@@H](CC(C)C)C(=O)N[C@@H](Cc1c[nH]cn1)C(=O)N[C@@H](CCC(=O)O)C(=O)N[C@@H](CC(C)C)C(=O)N[C@@H](C)C(=O)N[C@H](C(=O)N[C@@H](CC(C)C)C(=O)N1CCC[C@H]1C(=O)N[C@@H](CCCNC(=N)N)C(=O)N[C@H](C(=O)N[C@@H](CCC(=O)O)C(=O)N[C@H](C(=O)NCC(=O)N1CCC[C@H]1C(=O)N[C@@H](CCC(=O)O)C(=O)N[C@@H](CO)C(=O)N1CCC[C@H]1C(N)=O)[C@@H](C)O)[C@@H](C)O)[C@@H](C)O) [[N-terminal(C18 diacid), 5H]mimylin] | 6 pM | 8 pM |
| EASELSTAALGRLSAELHELATLPRTETGPESP-OH [[C-terminal(-)]mimylin] | 840 pM | 23600 pM |
| {C18 diacid}-EASELSTALLGRLSAELHELATLPRTETGPESP-NH2 (SMILES CC(C)C[C@H](NC(=O)[C@H](C)NC(=O)[C@@H](NC(=O)[C@H](CO)NC(=O)[C@H](CC(C)C)NC(=O)[C@H](CCC(=O)O)NC(=O)[C@H](CO)NC(=O)[C@H](C)NC(=O)[C@H](CCC(=O)O)NC(=O)CCCCCCCCCCCCCCCCC(=O)O)[C@@H](C)O)C(=O)N[C@@H](CC(C)C)C(=O)NCC(=O)N[C@@H](CCCNC(=N)N)C(=O)N[C@@H](CC(C)C)C(=O)N[C@@H](CO)C(=O)N[C@@H](C)C(=O)N[C@@H](CCC(=O)O)C(=O)N[C@@H](CC(C)C)C(=O)N[C@@H](Cc1c[nH]cn1)C(=O)N[C@@H](CCC(=O)O)C(=O)N[C@@H](CC(C)C)C(=O)N[C@@H](C)C(=O)N[C@H](C(=O)N[C@@H](CC(C)C)C(=O)N1CCC[C@H]1C(=O)N[C@@H](CCCNC(=N)N)C(=O)N[C@H](C(=O)N[C@@H](CCC(=O)O)C(=O)N[C@H](C(=O)NCC(=O)N1CCC[C@H]1C(=O)N[C@@H](CCC(=O)O)C(=O)N[C@@H](CO)C(=O)N1CCC[C@H]1C(N)=O)[C@@H](C)O)[C@@H](C)O)[C@@H](C)O) [[N-terminal(C18 diacid), 9L]mimylin] | 13 pM | 28 pM |
| ASGLSTATLGRLSQELHELQTYPRTETGSGTY (ends and bridges not checked) [[des1, 4G, 9T, 15Q, 21Q, 23Y, 30S, 31G, 32T, 33Y]mimylin] | 4 pM | 5 pM |
| ASGLSTAVLGRLSQELHELQTYPRTETGSGTY (ends and bridges not checked) [[des1, 4G, 9V, 15Q, 21Q, 23Y, 30S, 31G, 32T, 33Y]mimylin] | 4 pM | 8 pM |
| ASELSTAALGHLSAELHELATLPRTETGSGSP-NH2 [[des1, 12H, 30S, 31G]mimylin] | 3 pM | 14 pM |
| {C18 diacid}-EASELHTAALGRLSAELHELATLPRTETGPESP-NH2 (SMILES CC(C)C[C@H](NC(=O)[C@H](C)NC(=O)[C@H](C)NC(=O)[C@@H](NC(=O)[C@H](Cc1c[nH]cn1)NC(=O)[C@H](CC(C)C)NC(=O)[C@H](CCC(=O)O)NC(=O)[C@H](CO)NC(=O)[C@H](C)NC(=O)[C@H](CCC(=O)O)NC(=O)CCCCCCCCCCCCCCCCC(=O)O)[C@@H](C)O)C(=O)NCC(=O)N[C@@H](CCCNC(=N)N)C(=O)N[C@@H](CC(C)C)C(=O)N[C@@H](CO)C(=O)N[C@@H](C)C(=O)N[C@@H](CCC(=O)O)C(=O)N[C@@H](CC(C)C)C(=O)N[C@@H](Cc1c[nH]cn1)C(=O)N[C@@H](CCC(=O)O)C(=O)N[C@@H](CC(C)C)C(=O)N[C@@H](C)C(=O)N[C@H](C(=O)N[C@@H](CC(C)C)C(=O)N1CCC[C@H]1C(=O)N[C@@H](CCCNC(=N)N)C(=O)N[C@H](C(=O)N[C@@H](CCC(=O)O)C(=O)N[C@H](C(=O)NCC(=O)N1CCC[C@H]1C(=O)N[C@@H](CCC(=O)O)C(=O)N[C@@H](CO)C(=O)N1CCC[C@H]1C(N)=O)[C@@H](C)O)[C@@H](C)O)[C@@H](C)O) [[N-terminal(C18 diacid), 6H]mimylin] | 9 pM | 15 pM |
